{
  "source": "patent US6379894",
  "about": "(NOVIMAUNE S A, dated 1999)",
  "target": "T1, purified and recombinant USF1 protein (UniProt P22415 1-310, limits assumed)",
  "T1 construct": "also called USF1 recombinant factor; USF1 recombinant proteins",
  "T1 sequence (P22415 whole entry)": "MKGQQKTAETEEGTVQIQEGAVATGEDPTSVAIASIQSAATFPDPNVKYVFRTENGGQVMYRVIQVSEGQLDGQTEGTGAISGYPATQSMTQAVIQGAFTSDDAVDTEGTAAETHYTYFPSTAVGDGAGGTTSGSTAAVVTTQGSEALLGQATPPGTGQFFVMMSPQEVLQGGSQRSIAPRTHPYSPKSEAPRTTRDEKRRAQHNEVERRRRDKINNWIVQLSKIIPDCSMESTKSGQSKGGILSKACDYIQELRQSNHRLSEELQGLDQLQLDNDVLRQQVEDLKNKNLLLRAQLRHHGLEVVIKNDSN",
  "assay": "EMSA with recombinant proteins on radiolabelled NGE DNA probe, PhosphoImager",
  "description": "We then analysed whether STAT1 and USF1 proteins formed the U complex co-operatively after induction by interferon γ. […] Further, adding increasing quantities of activated STAT1 to a given quantity of USF1 in the presence of an excess of free NGE probe encouraged the formation of STAT1/USF1 complexes rather than binding of USF1 alone.",
  "data": [
    {"binder": "purified and activated recombinant STAT1 protein (other, UniProt P42224 1-750, looked up, activated form (phosphorylated); the residue numbers are not given, also called STAT1 factor) MSQWYELQQLDSKFLEQVHQLYDDSFPMEIRQYLAQWLEKQDWEHAANDVSFATIRFHDLLSQLDDQYSRFSLENNFLLQHNIRKSKRNLQDNFQEDPIQMSMIIYSCLKEERKILENAQRFNQAQSGNIQSTVMLDKQKELDSKVRNVKDKVMCIEHEIKSLEDLQDEYDFKCKTLQNREHETNGVAKSDQKQEQLLLKKMYLMLDNKRKEVVHKIIELLNVTELTQNALINDELVEWKRRQQSACIGGPPNACLDQLQNWFTIVAESLQQVRQQLKKLEELEQKYTYEHDPITKNKQVLWDRTFSLFQQLIQSSFVVERQPCMPTHPQRPLVLKTGVQFTVKLRLLVKLQELNYNLKVKVLFDKDVNERNTVKGFRKFNILGTHTKVMNMEESTNGSLAAEFRHLQLKEQKNAGTRTNEGPLIVTEELHSLSFETQLCQPGLVIDLETTSLPVVVISNVSQLPSGWASILWYNMLVAEPRNLSFFLTPPCARWAQLSEVLSWQFSSVTKRGLNVDQLNMLGEKLLGPNASPDGLIPWTRFCKENINDKNFPFWLWIESILELIKKHLLPLWNDGCIMGFISKERERALLKDQQPGTFLLRFSESSREGAITFTWVERSQNGGEPDFHAVEPYTKKELSAVTFPDIIRNYKVMAAENIPENPLKYLYPNIDKDHAFGKYYSRPKEAPEPMELDGPKGTGYIKTELISVSEVHPSRLQTTDNLLPMSPEEFDEVSRIVGSVEFDSMMNTV", "values": [
      {"measurement": "probe bound to the complex, as fold of the sum of probe bound to USF1 alone and STAT1 alone", "value": "~2", "unit": "fold"}
    ]}
  ]
}
